{"source": "paper PMC8384158", "experiment_in_all_cases": "TAP pull-down interactome analysis (LC-MS/MS)", "details_in_all_cases": "MCF-7 cells; read off a plot", "key": {"UBA1": {"biological_target": "UBA1"}, "HSP90AB1": {"biological_target": "HSP90AB1"}, "CCT6A": {"biological_target": "CCT6A"}, "GANAB": {"biological_target": "GANAB"}, "HSPA9": {"biological_target": "HSPA9"}, "PSMB6": {"biological_target": "PSMB6"}, "CCT2": {"biological_target": "CCT2"}, "ERP29": {"biological_target": "ERP29"}, "RPN2": {"biological_target": "RPN2"}, "CCT5": {"biological_target": "CCT5"}, "HSPA2": {"biological_target": "HSPA2"}, "PSMD2": {"biological_target": "PSMD2"}, "PDIA4": {"biological_target": "PDIA4"}, "SERPINH1": {"biological_target": "SERPINH1"}, "TCP1": {"biological_target": "TCP1"}, "CCT3": {"biological_target": "CCT3"}, "UCHL1": {"biological_target": "UCHL1"}}}
{"substance": "TAP–Bag-1S (from UniProt Q99933-4) I103K", "values": [{"measurement": "other: log2 relative change", "setting": "UBA1", "result": -0.2, "unit": "log2"}, {"measurement": "other: log2 relative change", "setting": "HSP90AB1", "result": -1.2, "unit": "log2"}, {"measurement": "other: log2 relative change", "setting": "CCT6A", "result": -1.6, "unit": "log2"}, {"measurement": "other: log2 relative change", "setting": "GANAB", "result": -0.47, "unit": "log2"}, {"measurement": "other: log2 relative change", "setting": "HSPA9", "result": -0.32, "unit": "log2"}, {"measurement": "other: log2 relative change", "setting": "PSMB6", "result": -0.9, "unit": "log2"}, {"measurement": "other: log2 relative change", "setting": "CCT2", "result": -0.82, "unit": "log2"}, {"measurement": "other: log2 relative change", "setting": "ERP29", "result": -2.3, "unit": "log2"}, {"measurement": "other: log2 relative change", "setting": "RPN2", "result": -1.9, "unit": "log2"}, {"measurement": "other: log2 relative change", "setting": "CCT5", "result": -1.5, "unit": "log2"}, {"measurement": "other: log2 relative change", "setting": "HSPA2", "result": 0.7, "unit": "log2"}, {"measurement": "other: log2 relative change", "setting": "PSMD2", "result": -2, "unit": "log2"}, {"measurement": "other: log2 relative change", "setting": "PDIA4", "result": -0.8, "unit": "log2"}, {"measurement": "other: log2 relative change", "setting": "SERPINH1", "result": -0.85, "unit": "log2"}, {"measurement": "other: log2 relative change", "setting": "TCP1", "result": -1.7, "unit": "log2"}]}
{"substance": "TAP–Bag-1S (from UniProt Q99933-4) R161D", "values": [{"measurement": "other: log2 relative change", "setting": "UBA1", "result": -2, "unit": "log2"}, {"measurement": "other: log2 relative change", "setting": "HSP90AB1", "result": -1.9, "unit": "log2"}, {"measurement": "other: log2 relative change", "setting": "GANAB", "result": -1.8, "unit": "log2"}, {"measurement": "other: log2 relative change", "setting": "HSPA9", "result": -0.32, "unit": "log2"}, {"measurement": "other: log2 relative change", "setting": "PSMB6", "result": -2.3, "unit": "log2"}, {"measurement": "other: log2 relative change", "setting": "CCT2", "result": -1.6, "unit": "log2"}, {"measurement": "other: log2 relative change", "setting": "CCT3", "result": -1.4, "unit": "log2"}, {"measurement": "other: log2 relative change", "setting": "CCT5", "result": 2, "unit": "log2"}, {"measurement": "other: log2 relative change", "setting": "PSMD2", "result": -2.1, "unit": "log2"}, {"measurement": "other: log2 relative change", "setting": "PDIA4", "result": -0.7, "unit": "log2"}, {"measurement": "other: log2 relative change", "setting": "SERPINH1", "result": -1.3, "unit": "log2"}, {"measurement": "other: log2 relative change", "setting": "TCP1", "result": -0.52, "unit": "log2"}]}
{"substance": "TAP–Bag-1S (from UniProt Q99933-4) R162E", "values": [{"measurement": "other: log2 relative change", "setting": "UBA1", "result": -0.47, "unit": "log2"}, {"measurement": "other: log2 relative change", "setting": "HSP90AB1", "result": -1.7, "unit": "log2"}, {"measurement": "other: log2 relative change", "setting": "CCT6A", "result": -2, "unit": "log2"}, {"measurement": "other: log2 relative change", "setting": "GANAB", "result": -0.52, "unit": "log2"}, {"measurement": "other: log2 relative change", "setting": "HSPA9", "result": -1.7, "unit": "log2"}, {"measurement": "other: log2 relative change", "setting": "PSMB6", "result": -2.3, "unit": "log2"}, {"measurement": "other: log2 relative change", "setting": "CCT2", "result": -1.5, "unit": "log2"}, {"measurement": "other: log2 relative change", "setting": "CCT3", "result": -1.2, "unit": "log2"}, {"measurement": "other: log2 relative change", "setting": "RPN2", "result": -2.1, "unit": "log2"}, {"measurement": "other: log2 relative change", "setting": "CCT5", "result": -0.35, "unit": "log2"}, {"measurement": "other: log2 relative change", "setting": "PDIA4", "result": -1.8, "unit": "log2"}, {"measurement": "other: log2 relative change", "setting": "SERPINH1", "result": -1.1, "unit": "log2"}, {"measurement": "other: log2 relative change", "setting": "TCP1", "result": -1.9, "unit": "log2"}]}
{"substance": "TAP–Bag-1S (from UniProt Q99933-4) R193D", "values": [{"measurement": "other: log2 relative change", "setting": "UBA1", "result": 0.37, "unit": "log2"}, {"measurement": "other: log2 relative change", "setting": "HSP90AB1", "result": -0.65, "unit": "log2"}, {"measurement": "other: log2 relative change", "setting": "UCHL1", "result": -0.77, "unit": "log2"}, {"measurement": "other: log2 relative change", "setting": "GANAB", "result": -0.15, "unit": "log2"}, {"measurement": "other: log2 relative change", "setting": "HSPA9", "result": -0.07, "unit": "log2"}, {"measurement": "other: log2 relative change", "setting": "PSMB6", "result": -0.85, "unit": "log2"}, {"measurement": "other: log2 relative change", "setting": "CCT2", "result": -0.05, "unit": "log2"}, {"measurement": "other: log2 relative change", "setting": "ERP29", "result": 1.5, "unit": "log2"}, {"measurement": "other: log2 relative change", "setting": "CCT3", "result": 1, "unit": "log2"}, {"measurement": "other: log2 relative change", "setting": "RPN2", "result": -1.5, "unit": "log2"}, {"measurement": "other: log2 relative change", "setting": "CCT5", "result": -0.45, "unit": "log2"}, {"measurement": "other: log2 relative change", "setting": "HSPA2", "result": 0.77, "unit": "log2"}, {"measurement": "other: log2 relative change", "setting": "PSMD2", "result": -1.1, "unit": "log2"}, {"measurement": "other: log2 relative change", "setting": "PDIA4", "result": -0.65, "unit": "log2"}, {"measurement": "other: log2 relative change", "setting": "SERPINH1", "result": -0.12, "unit": "log2"}, {"measurement": "other: log2 relative change", "setting": "TCP1", "result": 0.5, "unit": "log2"}]}
